In the Human Domainome abundance scans (Beltran et al. 2025) one finds abundance fitness data, which are given here for 42 variants.

± gives the uncertainty stated by the source.

Sequences and labels used below:
B1: Calcium-binding protein 2, residues 155 to 219; numbered along this chain, Q9NPB3 (parent)
chain: RELRDAFREFDTNGDGRISVGELRAALKALLGERLSQREVDEILQDVDLNGDGLVDFEEFVRMMS

In this data set the parent is B1. The data set can be described thus: abundance fitness (aPCA) (normalised: wild type 0, dead -1); higher = more abundant; growth selection in yeast, the domain comes from the species named. As to conditions: Homo sapiens.
Take REARDAFREFDTNGDGRISVGELRAALKALLGERLSQREVDEILQDVDLNGDGLVDFEEFVRMMS [L3A]: the abundance fitness was -0.302 ± 0.064.
To RELRDAFREFDTNGDGPISVGELRAALKALLGERLSQREVDEILQDVDLNGDGLVDFEEFVRMMS [R17P] belongs -0.701 ± 0.082.
For RELRDAFREFDTNGDGRISVGELRAALKALLGERLSQVEVDEILQDVDLNGDGLVDFEEFVRMMS [R38V], the abundance fitness was -0.021 ± 0.071.
As for RELRDAFREFDTNGDGRISVGELRAALKALLGERLSQREVDEILQDVDLNGDGLVMFEEFVRMMS [D56M], the figure is -0.262 ± 0.18; as for RELRDAFREFDTNGDGRISVGELRAALKALLGERLSQREVDEILQDVDLNGDGLVHFEEFVRMMS [D56H], -0.015 ± 0.14; as for RELRDAFREFDTNGDGRISVGELRAALKALLGERLSQREVDEILQDVDLNGDGLVSFEEFVRMMS [D56S], 0.078 ± 0.082.
To RELRDAFREFDTNGDGRISVGELRAALKALLGERLSQREVDEILQDVDLNGDGLVDFLEFVRMMS [E58L] belongs -0.008 ± 0.097; to RELRDAFREFDTNGDGRISVGELRAALKALLGEMLSQREVDEILQDVDLNGDGLVDFEEFVRMMS [R34M], -0.207 ± 0.088; to RELRDAFMEFDTNGDGRISVGELRAALKALLGERLSQREVDEILQDVDLNGDGLVDFEEFVRMMS [R8M], -0.043 ± 0.083.
Take RELRDAFREFDTNGDGRISVGELRAALSALLGERLSQREVDEILQDVDLNGDGLVDFEEFVRMMS [K28S]: the abundance fitness was -0.017 ± 0.074.
For RELRDAFREFDTNGDGRISVGELRAALKALLGERLSQREVDEILQMVDLNGDGLVDFEEFVRMMS [D46M], the abundance fitness is -0.42 ± 0.076.
As for RELRDAFREFDTNGDGRISVGELRAALKALLRERLSQREVDEILQDVDLNGDGLVDFEEFVRMMS [G32R], the figure is -0.258 ± 0.067.
As for RELRDAFREFDTNGDGRISVGELRAALKALLGERDSQREVDEILQDVDLNGDGLVDFEEFVRMMS [L35D], the figure is 0.064 ± 0.076; as for RELRDAFREFDTNGDGRISVGELRAALKALLGERLSQREVDEILQDVDLNGDGLVDFEEFIRMMS [V61I], -0.149 ± 0.17; as for RELRDAFREFDTNGDGRISVGELRAALKALLGERLSQREVDEILQDVDLNGDGLVDFEEFLRMMS [V61L], -0.012 ± 0.065.
On to RELRDAFREFDTNGDGRISVGELRAALKALLGERLSQREVDEILQDVDLNGDGLVDFEEFGRMMS [V61G], for which the abundance fitness is -0.005 ± 0.067.
Regarding RELRDAFREFDTNGDGRISVGELRAALKALLGERLSQREVDEILQDVDLNGDGKVDFEEFVRMMS [L54K], the abundance fitness is -0.207 ± 0.19.
With RELRDAFREFETNGDGRISVGELRAALKALLGERLSQREVDEILQDVDLNGDGLVDFEEFVRMMS [D11E], the abundance fitness is -0.972 ± 0.097.
As for RELRDAFREFDTNGDGRISVGELRAALKALLGERLSQREVDLILQDVDLNGDGLVDFEEFVRMMS [E42L], the figure is -0.175 ± 0.066; as for RELRDAFREFDTNGDGRISVGELRCALKALLGERLSQREVDEILQDVDLNGDGLVDFEEFVRMMS [A25C], 0.177 ± 0.14; as for RELRDAFREFDTNGDGRISVGELRQALKALLGERLSQREVDEILQDVDLNGDGLVDFEEFVRMMS [A25Q], -0.068 ± 0.15.
To RELRDAFREFDTNGDGRISVGELRAALKALLGERLSQREVDEILQDVDLNGDGLADFEEFVRMMS [V55A] belongs -0.189 ± 0.057; to RELRDAFREFDTNGDGRISVGELRAALKALLGERLSQREVDEILQDVDLNGDGLLDFEEFVRMMS [V55L], -0.028 ± 0.045.
Consider RELRDAFREFDTNGDGRISVGELRAALKALLGERLSQREVDEILQDVDLNGDGLPDFEEFVRMMS [V55P], for which the abundance fitness is -0.874 ± 0.098.
As for RELNDAFREFDTNGDGRISVGELRAALKALLGERLSQREVDEILQDVDLNGDGLVDFEEFVRMMS [R4N], the figure is -0.027 ± 0.12; as for RELVDAFREFDTNGDGRISVGELRAALKALLGERLSQREVDEILQDVDLNGDGLVDFEEFVRMMS [R4V], -0.107 ± 0.049.
As for RELGDAFREFDTNGDGRISVGELRAALKALLGERLSQREVDEILQDVDLNGDGLVDFEEFVRMMS [R4G], the abundance fitness is -0.255 ± 0.086.
On to EELRDAFREFDTNGDGRISVGELRAALKALLGERLSQREVDEILQDVDLNGDGLVDFEEFVRMMS [R1E], for which the abundance fitness was found to be 0.423 ± 0.36.
KELRDAFREFDTNGDGRISVGELRAALKALLGERLSQREVDEILQDVDLNGDGLVDFEEFVRMMS [R1K]: the abundance fitness is 0.12 ± 0.37.
Consider NELRDAFREFDTNGDGRISVGELRAALKALLGERLSQREVDEILQDVDLNGDGLVDFEEFVRMMS [R1N], for which the abundance fitness came to 0.078 ± 0.084.
RELRDAFREFDTNGDGRISVGELRAALKALLGERLSQREVDEILQDVDLNGDGLVDFETFVRMMS [E59T]: the abundance fitness came to 0.088 ± 0.096.
To RELRDAFREFDTNGDQRISVGELRAALKALLGERLSQREVDEILQDVDLNGDGLVDFEEFVRMMS [G16Q] belongs -0.223 ± 0.065.
To RELRDAFREFDTNGDLRISVGELRAALKALLGERLSQREVDEILQDVDLNGDGLVDFEEFVRMMS [G16L] belongs -0.669 ± 0.064; to RELRDAFREFDTNGDGRISVGELRAALKALLGERLSQREVDEILQDVDLNGMGLVDFEEFVRMMS [D52M], -0.168 ± 0.086; to RYLRDAFREFDTNGDGRISVGELRAALKALLGERLSQREVDEILQDVDLNGDGLVDFEEFVRMMS [E2Y], -0.306 ± 0.15.
As for RDLRDAFREFDTNGDGRISVGELRAALKALLGERLSQREVDEILQDVDLNGDGLVDFEEFVRMMS [E2D], the figure is -0.677 ± 0.37; as for RELRDAFREFDTNGDGRISLGELRAALKALLGERLSQREVDEILQDVDLNGDGLVDFEEFVRMMS [V20L], 0.093 ± 0.05.
For the variant RELRDAFREFDTNGDGRISVGELRAALKALLGERLSQREVDEILQDPDLNGDGLVDFEEFVRMMS [V47P], the abundance fitness was -0.394 ± 0.049.
As for RELRDAFREFDTNGDGRISVGELRAALKALLGERLSQREVDEILQDVVLNGDGLVDFEEFVRMMS [D48V], the figure is 0.092 ± 0.048; as for RELRDAFREFDTNGDGRISVGELRAALKALLGERLSQREVDEILQDVLLNGDGLVDFEEFVRMMS [D48L], -0.015 ± 0.066; as for RELRDAFREFDTNGDGRISVGELRAALKALMGERLSQREVDEILQDVDLNGDGLVDFEEFVRMMS [L31M], 0.169 ± 0.067.
Regarding RELRDAFREFDTNGDGRISVGELRAALKALLGERLSQREVDEILQDVDLNGDGLVDFEEFVHMMS [R62H], the abundance fitness was -0.233 ± 0.12.
